This passage reports protein stability index results from the supplement of paper PMC10567573.

B1: PKD2L1 (parent)
chain: SGPEAARAGGWVSGEEFYMLTRRV
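Also: lentivirally expressed fusions sorted by FACS into six bins by GFP to DsRed ratio, PSI derived from sequencing read proportions per bin multiplied by bin number.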

Variants of B1 are the subject of this data set. Put plainly: protein stability index of a GFP-peptide fusion (GPS, HEK-293T) (PSI 1-6); higher = more stable. As to conditions: c terminus: a fixed tail appended.
Consider SGPEAARAGGWVSVEEFYMLTRRV [G14V], for which the protein stability index worked out at 2.27.
Turning to SGPEAARAGGWVSMEEFYMLTRRV [G14M], the protein stability index is 2.46.
In the case of SGPEAARAGGWVSPEEFYMLTRRV [G14P] it was 3.09; in that of SGPEAARAGGWVSKEEFYMLTRRV [G14K], 2.52.
As for SGPEAARAGGWVSWEEFYMLTRRV [G14W], the protein stability index worked out at 2.19.
With SGPEAARAGGWVSREEFYMLTRRV [G14R], the protein stability index is 3.17.
The same measure for SGPEAARAGGWVSAEEFYMLTRRV [G14A]: 3.24.
In the case of SGPEAARAGQWVSGEEFYMLTRRV [G10Q], the protein stability index worked out at 2.91.
Turning to SGPEAARAGDWVSGEEFYMLTRRV [G10D], the protein stability index was determined as 3.01.
SGPEAARAGWWVSGEEFYMLTRRV [G10W]: the protein stability index turned out to be 2.53.
The same measure for SGPEAARAGVWVSGEEFYMLTRRV [G10V]: 1.72; for SGPEAARAGKWVSGEEFYMLTRRV [G10K]: 2.64.
As for SGPEAARAGSWVSGEEFYMLTRRV [G10S], the protein stability index was 2.32.
As for SGPEAARAGHWVSGEEFYMLTRRV [G10H], the protein stability index was 3.21.
The same measure for SGPEAARAGLWVSGEEFYMLTRRV [G10L]: 2.17; for SGPEAARADGWVSGEEFYMLTRRV [G9D]: 2.5; for SGPEAARAYGWVSGEEFYMLTRRV [G9Y]: 2.21.
On to SGPEAARAKGWVSGEEFYMLTRRV [G9K], for which the protein stability index came to 1.97.
With SGPEAARAVGWVSGEEFYMLTRRV [G9V], the protein stability index amounted to 1.85.
The same measure for SGPEAARAEGWVSGEEFYMLTRRV [G9E]: 2.5.
Regarding SGPEAARAMGWVSGEEFYMLTRRV [G9M], the protein stability index turned out to be 1.97.
On to SGPEAARAGGWVRGEEFYMLTRRV [S13R], for which the protein stability index worked out at 2.84.
Turning to SGPEAARAGGWVEGEEFYMLTRRV [S13E], the protein stability index was found to be 3.15.
In the case of SGPEAARAGGWVDGEEFYMLTRRV [S13D] it was 3.01; in that of SGPEAARAGGWVPGEEFYMLTRRV [S13P], 2.78; in that of SGPEAARAGGWVVGEEFYMLTRRV [S13V], 2.03.
In the case of SGPEAARAGGWVGGEEFYMLTRRV [S13G] it was 2.19; in that of SGPEAARAGGWVSGEEFYMHTRRV [L20H], 2.69; in that of SGPEAARAGGWVSGEEFYMWTRRV [L20W], 1.73.
In the case of SGPEAARAGGWVSGEEFYMQTRRV [L20Q] it was 3.1; in that of SGPEAARAGGWVSGEEFYMTTRRV [L20T], 2.81; in that of SGPEAARAGGWVSGEEFYMATRRV [L20A], 3.16.
SGPEAARAGGWVSGEEFYMFTRRV [L20F]: the protein stability index was 1.81.
In the case of SGPEAARAGGWVSGEEFYMDTRRV [L20D], the protein stability index worked out at 4.19.
Regarding SGPEAARAGGWVSGEEFYMMTRRV [L20M], the protein stability index worked out at 2.93.
As to SGPEAARAGGWVSGEEFYMKTRRV [L20K], the protein stability index was 3.46.
In the case of SGPEAARAGGWVSGEEFYMETRRV [L20E] it was 3.64; in that of SGPEAARIGGWVSGEEFYMLTRRV [A8I], 1.76.
SGPEAARFGGWVSGEEFYMLTRRV [A8F]: the protein stability index was 1.7.
The same measure for SGPEAARRGGWVSGEEFYMLTRRV [A8R]: 2.03; for SGPEAARPGGWVSGEEFYMLTRRV [A8P]: 2.05; for SGPEAARLGGWVSGEEFYMLTRRV [A8L]: 2.02.
In the case of SGPEAARWGGWVSGEEFYMLTRRV [A8W] it was 2.71.
Regarding SGPEAARDGGWVSGEEFYMLTRRV [A8D], the protein stability index came out at 2.43.
In the case of SGPEAARSGGWVSGEEFYMLTRRV [A8S] it was 2.31.
As for SGPEAARAGGMVSGEEFYMLTRRV [W11M], the protein stability index came to 2.76.
The same measure for SGPEAARAGGDVSGEEFYMLTRRV [W11D]: 3.52; for SGPEAARAGGIVSGEEFYMLTRRV [W11I]: 2.6.
On to SGPEAARAGGKVSGEEFYMLTRRV [W11K], for which the protein stability index stood at 2.21.
SGPEAARAGGAVSGEEFYMLTRRV [W11A]: the protein stability index turned out to be 3.56.
As for SGPEAARAGGPVSGEEFYMLTRRV [W11P], the protein stability index was 3.19.
As to SGPEAARAGGWVSGEEFYMLTRRD [V24D], the protein stability index is 3.54.
In the case of SGPEAARAGGWVSGEEFYMLTRRG [V24G] it was 2.48.
With SGPEAARAGGWVSGEEFYMLTRRQ [V24Q], the protein stability index is 3.01.
In the case of SGPEAARAGGWVSGEEFYMLTRRC [V24C] it was 2.08; in that of SGPEAARAGGWVSGEEFYMLTRRI [V24I], 1.96.
The same measure for SGPEAARAGGWVSGEEFYMLTRRA [V24A]: 1.97; for SGPEAARAGGWVSGEEFYMLTRRR [V24R]: 2.63; for SGGEAARAGGWVSGEEFYMLTRRV [P3G]: 2.63.
The same measure for SGIEAARAGGWVSGEEFYMLTRRV [P3I]: 2.16; for SGMEAARAGGWVSGEEFYMLTRRV [P3M]: 2.2.
Take SGSEAARAGGWVSGEEFYMLTRRV [P3S]: the protein stability index was 2.02.
On to SGDEAARAGGWVSGEEFYMLTRRV [P3D], for which the protein stability index is 2.04.
In the case of SGWEAARAGGWVSGEEFYMLTRRV [P3W] it was 1.74.
In the case of SGEEAARAGGWVSGEEFYMLTRRV [P3E] it was 2.43; in that of SGVEAARAGGWVSGEEFYMLTRRV [P3V], 2.14.
For the variant SGPEGARAGGWVSGEEFYMLTRRV [A5G], the protein stability index was determined as 3.07.
In the case of SGPEKARAGGWVSGEEFYMLTRRV [A5K] it was 1.96.
The same measure for SGPEYARAGGWVSGEEFYMLTRRV [A5Y]: 2.18; for SGPENARAGGWVSGEEFYMLTRRV [A5N]: 2.18; for SGPEWARAGGWVSGEEFYMLTRRV [A5W]: 2.06.
On to SGPEHARAGGWVSGEEFYMLTRRV [A5H], for which the protein stability index was 2.03.
On to SGPEEARAGGWVSGEEFYMLTRRV [A5E], for which the protein stability index amounted to 2.32.
On to SGPEMARAGGWVSGEEFYMLTRRV [A5M], for which the protein stability index was determined as 2.58.
Regarding SGPELARAGGWVSGEEFYMLTRRV [A5L], the protein stability index worked out at 2.19.
The same measure for SGPEAARAGGWVSGEEFYMLARRV [T21A]: 2.41; for SGPEAARAGGWVSGEEFYMLCRRV [T21C]: 2.29.
Consider SGPEAARAGGWVSGEEFYMLPRRV [T21P], for which the protein stability index came to 3.33.
As for SGPEAARAGGWVSGEEFYMLGRRV [T21G], the protein stability index is 3.08.
The same measure for SGPEAARAGGWVSGEEFYMLWRRV [T21W]: 2.12; for SGPEAARAGGWVSGEEFYMLFRRV [T21F]: 1.5; for SGPEAARAGGWVSGEEFYMLRRRV [T21R]: 3.1.
The same measure for SGPEAARAGGWVSGEEFYMLDRRV [T21D]: 3.76.
On to SGPEAARAGGWVSGEEFYMLQRRV [T21Q], for which the protein stability index turned out to be 2.94.
In the case of SGPEAARAGGWVSGREFYMLTRRV [E15R] it was 2.62; in that of SGPEAARAGGWVSGFEFYMLTRRV [E15F], 3.15.
In the case of SGPEAARAGGWVSGTEFYMLTRRV [E15T] it was 2.45.
On to SGPEAARAGGWVSGKEFYMLTRRV [E15K], for which the protein stability index amounted to 2.92.
Take SGPEAARAGGWVSGPEFYMLTRRV [E15P]: the protein stability index worked out at 2.52.
As for SGPEAARAGGWVSGHEFYMLTRRV [E15H], the protein stability index was 2.17.
With SGPEAARAGGWVSGLEFYMLTRRV [E15L], the protein stability index was 2.02.
The same measure for SGPEAARAGGWVSGIEFYMLTRRV [E15I]: 1.59; for SGPEAARAGGWVSGMEFYMLTRRV [E15M]: 1.48.
In the case of SGPEAARAGGWVSGGEFYMLTRRV [E15G] it was 2.2.
